Source: the supplement of paper PMC10567573

B1: PDLIM7 (parent)
chain: AAGGVPGGGSNNGKTPVCHQCHKV
B2: KLHL12 (parent)
chain: SMTTPRCYVGATVLRGRLYAIAGY

Variants of: B1
Test: protein stability index of a GFP-peptide fusion (GPS, HEK-293T) (PSI 1-6); higher = more stable
Conditions: c terminus: a fixed tail appended
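Also: lentivirally expressed fusions sorted by FACS into six bins by GFP to DsRed ratio, PSI derived from sequencing read proportions per bin multiplied by bin number.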

Protein stability index: each site, then its substitutions
S10: Q 3.02 | T 2.67

Variants of: B2
Test: as above
Conditions: c terminus: a fixed tail appended

Protein stability index of substitutions, site by site:
S1: A 1.85 | C 3.04 | D 2.24 | E 1.66 | F 2.24 | G 2.39 | H 1.51 | I 2.52 | K 1.92 | L 3.32 | M 1.89 | N 1.9 | P 3.62 | Q 1.39 | R 3.81
M2: A 2.19 | D 2.48 | E 1.68 | F 3.06 | G 2.78 | H 1.93 | I 1.65 | L 2.64 | N 2.96 | P 1.33 | Q 1.48 | R 2.35 | S 3.02 | T 2.22 | V 1.97 | Y 2.77
T3: A 2.97 | C 2.75 | E 1.65 | F 1.62 | H 2.34 | I 1.02 | K 2.08 | L 2.72 | M 1.99 | N 1.46 | P 1.59 | Q 2.67 | S 2.31 | V 2.36 | Y 1.62
T4: A 1 | D 2.27 | F 2.12 | H 3.03 | I 2.44 | K 2.69 | L 2.16 | M 3.38 | N 3.79 | P 1.93 | R 2.16 | S 2.3 | V 2.65 | Y 2.75
P5: H 4.85 | I 1.79 | M 2.98 | N 2.22 | Q 2.71 | R 4.23 | S 3.27 | T 2.22 | W 2.99 | Y 2.19
R6: A 1.73 | D 2.56 | F 2.04 | G 1.27 | I 1.55 | K 2.04 | L 1.18 | N 2.26 | P 1.83 | Q 2.54 | S 2.42 | T 1.53
C7: A 1.32 | D 2.41 | E 1.47 | F 3.95 | G 3.82 | H 1.16 | I 3.84 | K 2.18 | L 3.82 | M 4.32 | N 1.62 | P 1.06 | Q 1.71 | R 2.43 | S 3.15 | T 2.16 | V 2.13
Y8: A 2 | D 1.71 | E 1.06 | F 2.98 | H 1.74 | I 3.73 | K 2.88 | L 2.48 | M 1.57 | N 1.5 | P 1.71 | Q 2.18 | R 1.21 | S 2.77 | T 2.12 | W 1.82
V9: A 2 | D 1.4 | E 2.3 | F 2.87 | G 1.93 | H 2.62 | I 2.74 | K 1.63 | L 3.27 | M 2.43 | N 2.26 | P 1.7 | Q 1.96 | R 3.6 | S 1.82 | T 1.74 | W 2.17 | Y 3.18
G10: A 1.29 | C 2.8 | D 1.1 | E 3.01 | F 1.36 | H 1.85 | I 2.94 | K 2.11 | L 2.13 | M 2.75 | N 1.95 | P 1.91 | S 1.02 | T 3.52 | W 1.11 | Y 2.21
A11: C 2.29 | D 1.42 | E 1.5 | F 2.01 | G 1.33 | H 1.8 | K 2.19 | M 2 | N 1.5 | P 2.17 | Q 2.32 | R 3.02 | S 1.04 | T 1.49 | Y 2.99
T12: A 1.68 | C 2.41 | D 1.85 | E 1.1 | F 2.4 | G 1.18 | I 2.46 | K 2.48 | L 2.77 | M 3.47 | N 2.87 | P 1.94 | Q 1.92 | R 2.21 | S 1.63 | V 3.43 | Y 4.56
V13: A 1.83 | C 1.58 | D 1.28 | E 2.69 | F 1.85 | G 2.24 | H 3.25 | I 1.84 | K 1.96 | L 3.54 | M 1.73 | N 1.81 | P 1.95 | Q 2.85 | R 1.74 | S 1.88 | T 1.03 | Y 2.03
L14: A 1.79 | C 2.48 | D 1.58 | E 1.93 | F 1.77 | G 1.55 | H 1.62 | I 1.99 | K 1.93 | N 1.17 | P 2.01 | Q 2.76 | R 1.99 | S 1.9 | T 2.5 | W 3.9 | Y 3.61
R15: A 2.33 | C 3.81 | D 2.78 | E 2.11 | G 2.98 | H 2.64 | I 2.18 | K 2.57 | L 2.21 | M 1.59 | N 1.95 | P 1.88 | Q 1.46 | S 1.63 | T 2.62 | V 3.43 | W 1.66 | Y 3.51
G16: C 2.22 | D 1.58 | E 1.25 | F 2.91 | H 1.98 | I 3.21 | K 1.77 | L 2.05 | N 1.98 | P 2.19 | Q 1.45 | R 2.39 | S 2.46 | T 2.04 | V 3.05 | W 1.48 | Y 2.42
R17: A 1.73 | C 2.04 | D 1.88 | E 1.68 | F 3.17 | G 2.27 | H 2.17 | I 3.46 | M 3.27 | N 2.17 | P 2.42 | Q 1.85 | S 3.1 | T 1.92 | V 2.35 | Y 2.26
L18: A 1.49 | C 2.93 | D 1.94 | E 1.95 | F 2.67 | G 1.7 | H 2.1 | I 1.68 | K 1.75 | M 1.72 | N 2 | P 1.87 | Q 1.81 | R 1.9 | S 1.36 | T 1.78 | V 2.08 | Y 2.68
Y19: A 1.65 | C 2.91 | D 1.99 | E 2.19 | F 2.02 | G 2.81 | H 1.72 | I 3.51 | K 1.79 | L 2.15 | M 1.79 | N 2.66 | P 2.22 | Q 2.11 | R 1.77 | S 2 | T 2.02 | W 3.23
A20: C 2.26 | D 1.48 | E 1.76 | F 2.38 | G 2.11 | H 1.18 | I 2.3 | K 3.06 | M 2.23 | N 1.72 | P 2.26 | Q 2.45 | R 1.34 | T 1.01 | V 3.5 | W 3.09 | Y 2.41
I21: A 2.65 | C 1.37 | D 1.46 | E 1.78 | F 2.81 | G 1.78 | H 1.59 | K 1.57 | L 2.73 | M 1.28 | N 1.81 | P 2.29
